Experimental data from PMC9352551, “Energetic determinants of animal cell polarity regulator Par-3 interaction with the Par complex” (The Journal of Biological Chemistry, 2022).

T1: Par-3 PDZ2 (his-purified, soluble) (Drosophila, UniProt O96782 444-533)
T1 construct: Par-3 (Bazooka), Drosophila, residues 444-533; From pET19; also called soluble PDZ2; source: E. coli BL21 (DE3), his-purified
T1 sequence (looked up): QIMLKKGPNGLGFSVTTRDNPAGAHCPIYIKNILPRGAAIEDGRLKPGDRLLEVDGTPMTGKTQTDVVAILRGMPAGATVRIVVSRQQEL

T2: Par-3 PDZ3 (his-purified, soluble) (Drosophila, UniProt O96782 616-741)
T2 construct: Par-3 (Bazooka), Drosophila, residues 616-741; From pET19; source: E. coli BL21 (DE3), his-purified
T2 sequence (looked up): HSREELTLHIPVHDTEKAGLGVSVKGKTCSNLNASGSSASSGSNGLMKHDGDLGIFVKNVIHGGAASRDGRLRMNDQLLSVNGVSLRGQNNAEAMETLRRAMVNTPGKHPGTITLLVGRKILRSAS

T3: Par complex (his-Par-6, aPKC) (Drosophila, UniProt O97111 1-351; A1Z9X0 1-606)
T3 construct: Par-6, Drosophila, residues 1-351; atypical protein kinase C (aPKC), Drosophila, residues 1-606; Construct as in PMID 32084408; also called full Par complex; source: HEK 293F, transfected (pCMV), purified (Ni-NTA or cobalt resin, Source Q anion exchange)
T3 sequence (looked up) 1: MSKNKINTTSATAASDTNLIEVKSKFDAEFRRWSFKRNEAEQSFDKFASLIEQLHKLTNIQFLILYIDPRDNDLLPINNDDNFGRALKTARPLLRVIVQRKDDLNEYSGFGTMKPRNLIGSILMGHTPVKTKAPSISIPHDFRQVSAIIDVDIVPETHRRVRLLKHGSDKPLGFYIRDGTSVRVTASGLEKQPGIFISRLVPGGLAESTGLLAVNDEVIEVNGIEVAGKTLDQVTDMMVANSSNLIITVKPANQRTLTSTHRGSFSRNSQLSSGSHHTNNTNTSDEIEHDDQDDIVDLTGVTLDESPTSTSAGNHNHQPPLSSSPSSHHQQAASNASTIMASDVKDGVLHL
T3 sequence (looked up) 2: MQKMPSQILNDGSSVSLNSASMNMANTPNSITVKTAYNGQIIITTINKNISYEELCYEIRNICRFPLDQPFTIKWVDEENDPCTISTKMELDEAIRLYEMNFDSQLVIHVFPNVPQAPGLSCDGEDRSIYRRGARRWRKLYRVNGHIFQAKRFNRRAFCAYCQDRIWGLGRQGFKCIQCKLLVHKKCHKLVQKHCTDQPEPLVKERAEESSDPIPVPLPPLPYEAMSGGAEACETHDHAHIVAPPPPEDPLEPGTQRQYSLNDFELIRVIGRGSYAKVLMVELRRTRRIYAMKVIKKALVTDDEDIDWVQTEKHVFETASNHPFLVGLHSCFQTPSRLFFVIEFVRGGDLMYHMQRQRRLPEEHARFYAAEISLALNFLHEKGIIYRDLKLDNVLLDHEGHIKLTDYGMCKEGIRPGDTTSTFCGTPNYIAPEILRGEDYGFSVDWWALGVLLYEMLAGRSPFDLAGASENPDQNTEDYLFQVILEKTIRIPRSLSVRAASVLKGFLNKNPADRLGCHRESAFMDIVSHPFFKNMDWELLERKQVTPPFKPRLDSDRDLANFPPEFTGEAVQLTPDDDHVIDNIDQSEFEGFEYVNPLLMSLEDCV

T4: Par complex Par-6ΔPBM (Drosophila, UniProt O97111 1-343; A1Z9X0 1-606)
T4 construct: aPKC, Drosophila, residues 1-606; Construct as in PMID 32084408; also called Par complex lacking the Par-6 PBM; Par-6ΔPBM/aPKC; source: HEK 293F, transfected (pCMV), purified (Ni-NTA or cobalt resin, Source Q anion exchange)
T4 sequence (looked up) 1: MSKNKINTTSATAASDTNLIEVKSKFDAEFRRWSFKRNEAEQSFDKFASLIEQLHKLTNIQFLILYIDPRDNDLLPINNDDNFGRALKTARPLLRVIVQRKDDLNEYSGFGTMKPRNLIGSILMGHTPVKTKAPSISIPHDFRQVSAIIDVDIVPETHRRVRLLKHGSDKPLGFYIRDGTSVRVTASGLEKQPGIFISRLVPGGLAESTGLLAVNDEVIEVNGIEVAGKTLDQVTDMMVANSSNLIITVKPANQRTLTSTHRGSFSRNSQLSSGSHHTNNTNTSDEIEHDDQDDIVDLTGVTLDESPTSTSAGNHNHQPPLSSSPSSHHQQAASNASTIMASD
T4 sequence (looked up) 2: T3 sequence (looked up) 2

B1: GST-aPKC PBM (domain or fragment, Drosophila, UniProt A1Z9X0 583-606, looked up)
chain: NIDQSEFEGFEYVNPLLMSLEDCV
notes: From pGEX; construct as in PMID 32084408
B2: aPKC KD-PBM (domain or fragment, Drosophila, UniProt A1Z9X0 259-606, looked up)
chain: YSLNDFELIRVIGRGSYAKVLMVELRRTRRIYAMKVIKKALVTDDEDIDWVQTEKHVFETASNHPFLVGLHSCFQTPSRLFFVIEFVRGGDLMYHMQRQRRLPEEHARFYAAEISLALNFLHEKGIIYRDLKLDNVLLDHEGHIKLTDYGMCKEGIRPGDTTSTFCGTPNYIAPEILRGEDYGFSVDWWALGVLLYEMLAGRSPFDLAGASENPDQNTEDYLFQVILEKTIRIPRSLSVRAASVLKGFLNKNPADRLGCHRESAFMDIVSHPFFKNMDWELLERKQVTPPFKPRLDSDRDLANFPPEFTGEAVQLTPDDDHVIDNIDQSEFEGFEYVNPLLMSLEDCV
notes: From pBH; also called his aPKC kinase domain-PBM; aPKC kinase domain–PBM; source: E. coli BL21 (DE3), his-purified (Ni-NTA) partially under denaturing conditions (8 M urea)
B3: MBP-Par-3 PDZ1-APM (domain or fragment, Drosophila, UniProt O96782 309-987, looked up)
chain: DGEMLLIINEYGSPLGLTALPDKEHGGGLLVQHVEPGSRAERGQLRRDDRILEINGIKLIGLTESQVQEQLRRALESSELRVRVLRGDRNRRQQRDSKVADMVEVATVSPTRKPHAAPVGTSLQVANTRKLGRKIQIMLKKGPNGLGFSVTTRDNPAGAHCPIYIKNILPRGAAIEDGRLKPGDRLLEVDGTPMTGKTQTDVVAILRGMPAGATVRIVVSRQQELAEQADQPAEKSAGVAVAPSVAPPAVPAAAAPAPPIPVQKSSSARSLFTHQQQSQLNESQHFIDAGSESAASNDSLPPSSNSWHSREELTLHIPVHDTEKAGLGVSVKGKTCSNLNASGSSASSGSNGLMKHDGDLGIFVKNVIHGGAASRDGRLRMNDQLLSVNGVSLRGQNNAEAMETLRRAMVNTPGKHPGTITLLVGRKILRSASSSDILDHSNSHSHSHSNSSGGSNSNGSGNNNNSSSNASDNSGATVIYLSPEKREQRCNGGGGGGSAGNEMNRWSNPVLDRLTGGICSSNSAQPSSQQSHQQQPHPSQQQQQQRRLPAAPVCSSAALRNESYYMATNDNWSPAQMHLMTAHGNTALLIEDDAEPMSPTLPARPHDGQHCNTSSANPSQNLAVGNQGPPINTVPGTPSTSSNFDATYSSQLSLETNSGVEHFSRDALGRRSISEKHHA
notes: Par-3 (Bazooka), Drosophila, residues 309-987 (PDZ1 to the aPKC phosphorylation motif); From pMAL; construct as in PMID 32084408; not shown: MBP, N-terminal, kept; His tag, C-terminal, kept

Columns and labels:
Settings in all cases: both partners purified
MBP-Par-3 PDZ1-APM [1] = biological target: B3; assay: pull-down; GST-aPKC PBM on glutathione resin with Par-3 PDZ1-APM and the Par complex as soluble proteins; room temperature, 30 to 60 min; 10 mM Hepes pH 7.5, 100 mM NaCl, 1 mM DTT, 200 μM ATP, 5 mM MgCl2, 0.1% Tween-20; Coomassie gel
[2] = biological target: T1, Par-3 PDZ2 (his-purified, soluble); assay: supernatant depletion assay; GST-fused protein on glutathione agarose resin (solid phase, 'ligand'); soluble protein ('receptor') left in the supernatant at equilibrium quantified on a Coomassie gel; 1 h at 20 °C; 10 mM Hepes pH 7.5, 100 mM NaCl, 1 mM DTT, 200 μM ATP, 5 mM MgCl2, 0.1% Tween-20; single-site equation; 'apparent' for Par-3 variants that could bind more than one Par complex; ATP replaced with ADP in one …
[3] = biological target: T2, Par-3 PDZ3 (his-purified, soluble); assay: as above
MBP-Par-3 PDZ1-APM [4] = biological target: B3; assay: supernatant depletion assay; MBP-Par-3 (C-terminal his-tag, his-purified) on amylose resin (solid phase); soluble protein left in the supernatant quantified on a Coomassie gel; 10 min at 20 °C; 10 mM Hepes pH 7.5, 100 mM NaCl, 1 mM DTT, 200 μM ATP, 5 mM MgCl2, 0.1% Tween-20; 'apparent'
[5] = biological target: T3, Par complex (his-Par-6, aPKC); assay: as above
Par complex Par-6ΔPBM = biological target: T4, Par complex Par-6ΔPBM; assay: as above

Binder: B1
binding result (MBP-Par-3 PDZ1-APM [1]): binds
binding result [2]: binds
binding result [3]: binds

Binder: B2
binding result (MBP-Par-3 PDZ1-APM [4]): binds

Binder: B3
binding result [5]: binds
binding result (Par complex Par-6ΔPBM): binds
